For this assay, the target named is recombinant B/Phuket/3073/2013 NA ectodomain (tetramer) (UniProt P16199 79-465). Nature of the assay: BLI. A general note: Biolayer interferometry detects binding as a change in optical thickness at a sensor tip.

Where “and” joins values, the source holds several entries; their conditions need not be identical. Equal values may be shown once.

B1: 2E01 Fab (Fab, V domains shown)
VH: EVQLVQSGAEVKKPGSSVKVSCKASGYTFINHALSWVRQAPGQGLEWVGGIIPIFGLAKYGQKFQDRVTITADESTKTAYMDLRSLRSDDTAVYYCARDTVAVYEDFDWSSPYFFYMDVWGKGTTVTVSS
VL: EIVLTQSPATLSLFPGERATLSCRASQSAGSKSLAWYQHKVGQPPRLLINGASSRATGIPDRFSGSGSGPDFNLTISRLEPEDFAVYYCQRYGTSLVTFGGGTKVEIK
With B1, the Kd was 441 nM and 150 nM.

The term Kd denotes the constant that tells how readily two partners part at equilibrium.
